Measurements from article PMC8163975 (The Journal of Biological Chemistry, 2021).

What was measured:
[1] = molecular target: T1, RIT1, mGppNHp-bound (human, UniProt Q92963 1-219); assay: fluorescence polarisation; increasing concentrations of the RA/RB domain as MBP fusion protein (0.002-300 µM; or MBP alone) titrated to mGppNHp-bound RAS protein (1 µM); 30 mM Tris-HCl pH 7.4, 100 mM NaCl, 5 mM MgCl2, 3 mM DTT; Kd from a quadratic ligand-binding equation; details: both partners purified
T1 construct: human RIT1; Loaded with mGppNHp
T1 sequence (Q92963 whole entry, the tested form may be a part): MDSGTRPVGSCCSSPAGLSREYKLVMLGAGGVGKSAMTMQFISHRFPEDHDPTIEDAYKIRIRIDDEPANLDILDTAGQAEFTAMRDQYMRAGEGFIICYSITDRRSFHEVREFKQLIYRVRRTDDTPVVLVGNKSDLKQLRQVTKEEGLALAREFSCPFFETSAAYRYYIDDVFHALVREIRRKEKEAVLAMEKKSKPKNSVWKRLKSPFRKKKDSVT

[2] = molecular target: T2, HRAS, mGppNHp-bound (human, UniProt P01112-1 1-189); assay: as above; details: both partners purified
T2 construct: human HRAS; Loaded with mGppNHp, a fluorescent non-hydrolysable GTP analogue; That the RAS proteins were the pGEX (GST) constructs is surmised; also called HRAS1; p21HRAS

Kd [1]: 150 µM
Kd [2]: 40 µM
B1: RASSF9-to-5 variant of the RASSF9 RA domain, MBP fusion protein (domain or fragment, human, UniProt O75901 25-119, looked up)
chain: EEKEIVVWVCQEEKLDCIKTLHTTSADVIQALLEEHEATFGEKRFLLGKPSDYCIIEKWRGSERVLPPLTRILKLWKAWGDEQPNMQFVLVKADA
notes: RASSF9 RA domain (aa 25-119 of O75901, the limits of the wild-type construct) with five hotspot residues changed to those of RASSF5; source: gene synthesis (BioCat) in pMal-c5X-His vector; E. coli, purified
